# According to patent publication US20170281749A1:
# Tests used:
# CH505TF gp140 Trimer = test: SPR
# [1] = target: CH505TF gp120 GCN4 Trimer; test: SPR
Substance,Kd (CH505TF gp140 Trimer),Kd [1]
VRC01 (CD4 bs),2.4 nM,2.5 nM
CH01 (V1-V2),–,> 100000 nM
A32 (C1),3 nM,2.9 nM
PG9 (V1-V2),69.2 nM,159 nM
PGT128 (-CHO),20.3 nM,53 nM
2G12 (-CHO),6.5 nM,169 nM
697 D (V2),170 nM,554 nM
CH58 (V2),60.5 nM,104 nM
CH106 (CD4 bs),5.81 nM,5.5 nM
F105 (CD4 bs),24.9 nM,40.7 nM
19b (V3),1.2 nM,0.8 nM
CH103_UCA (CD4 bs),36.1 nM,14.6 nM
